Assay results reported in patent publication US20200399353A1 (AGENCY FOR SCIENCE TECHNOLOGY AND RESEARCH, published 2020).

Tests used:
[1] = target: T1, cell surface Annexin A2 (ANXA2) on live cells (human, UniProt P07355 2-339, N-linked glycan (N-glycan-dependent epitope; its position is not shown by an experiment)); assay: flow cytometry on live IGROV1 cells
T1 construct: Endogenous ANXA2 on live human cancer cell lines (IGROV1, MCF7 and others) and hESC; also called annexin 2

[2] = target: T1, cell surface Annexin A2 (ANXA2) on live …; assay: flow cytometry

T1 sequence (P07355 2-339 limits assumed): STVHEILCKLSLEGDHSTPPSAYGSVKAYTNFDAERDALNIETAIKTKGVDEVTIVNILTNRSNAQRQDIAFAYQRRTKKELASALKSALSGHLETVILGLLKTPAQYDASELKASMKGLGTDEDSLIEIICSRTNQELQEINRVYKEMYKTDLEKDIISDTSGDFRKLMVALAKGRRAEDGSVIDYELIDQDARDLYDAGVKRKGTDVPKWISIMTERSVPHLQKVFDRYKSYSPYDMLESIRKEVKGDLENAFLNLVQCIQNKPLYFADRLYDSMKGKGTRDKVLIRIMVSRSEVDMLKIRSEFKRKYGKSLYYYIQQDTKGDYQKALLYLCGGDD

binding result [1] | binding result [2] | Binder
binds | – | mAb 2448 (antibody, V domains shown) VH: VQLQESGPDLVKPSRSLSLTCTVTGYSITSGYSWHWIRQFPGNKLEWMGYIHYSGSTKYNPSLKSRISITRDTSKNQFFLQLNSVTTEDAATYYCARGSNYGFDYWGQGTTLTVSS VL: DIELTQSPSSLAVSVGEKVTMSCKSSQSLLYSNDQKNYLAWYQQKPGQSPKLLIYWASIRESGVPDRFTGSGSGTDFTLTISSVKAEDLAVYYCQQYYIYPLTFGAGTKLEIKR
– | binds | Chimeric mAb ch2448 (antibody, V domains shown, also called wildtype chimeric mAb ch2448) VH: VQLQESGPDLVKPSRSLSLTCTVTGYSITSGYSWHWIRQFPGNKLEWMGYIHYSGSTKYNPSLKSRISITRDTSKNQFFLQLNSVTTEDAATYYCARGSNYGFDYWGQGTTLTVSS VL: DIELTQSPSSLAVSVGEKVTMSCKSSQSLLYSNDQKNYLAWYQQKPGQSPKLLIYWASIRESGVPDRFTGSGSGTDFTLTISSVKAEDLAVYYCQQYYIYPLTFGAGTKLEIKR
– | binds | Afucosylated ch2448 (antibody, V domains shown, also called aF-ch2448) VH: VQLQESGPDLVKPSRSLSLTCTVTGYSITSGYSWHWIRQFPGNKLEWMGYIHYSGSTKYNPSLKSRISITRDTSKNQFFLQLNSVTTEDAATYYCARGSNYGFDYWGQGTTLTVSS VL: DIELTQSPSSLAVSVGEKVTMSCKSSQSLLYSNDQKNYLAWYQQKPGQSPKLLIYWASIRESGVPDRFTGSGSGTDFTLTISSVKAEDLAVYYCQQYYIYPLTFGAGTKLEIKR
